Test results taken from patent US7101851 (dated 2006).
Where “and” joins values, the source holds several entries; their conditions need not be identical. Equal entries are not always repeated. Where no end group is shown, it is not given here.

Key:
[1] = target: T1, FcεRI-IgG (UniProt P12319 26-205); test: competitive phage ELISA: g3 peptide-phage on immobilized FcεRI-IgG, soluble FcεRI-IgG titrated
T1 construct: extracellular domain; Produced from CHO cells (Genentech); also called FcεRI-Fc; bivalent fusion protein of the extracellular domain of FcεRI and the Fc domain of IgG; not shown: Fc domain of IgG
T1 sequence (looked up): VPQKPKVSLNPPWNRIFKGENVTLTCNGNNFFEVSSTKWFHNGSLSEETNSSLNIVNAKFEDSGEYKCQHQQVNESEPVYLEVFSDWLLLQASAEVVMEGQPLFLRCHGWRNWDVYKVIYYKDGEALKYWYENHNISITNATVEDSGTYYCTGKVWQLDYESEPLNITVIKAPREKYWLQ
Protocol: (§1) This oligonucleotide was annealed with a g3 single stranded DNA phagemid template. The mutagenesis reaction was transformed into XL-1 Blue *E. coli* and plated on LB-carb+ agar plates. Individual colonies were propagated in 5 mL of 2YT broth, tetracycline, carbenicillin and VCSM13 helper phage (Stratagene). Single stranded DNA was isolated from the purified phage particles and sequenced to confirm the insertion of the phage peptide sequence. 25 mL preparations of g3 phage clones were propagated overnight and purified by PEG precipitation. After resuspension of the phage pellet in 1.0 mL of PBS, it was serially diluted 1/3 and incubated with immobilized FcεRI-IgG 2 ug/mL in a 96 well Maxisorp microtiter plate for 1 hour at room temperature. The wells were washed 10× with PBST then incubated with 100 uL of anti M13 phage HRP as described above. An OD(492) value corresponding to less than 50% binding was selected and the purified phage clones were diluted to yield this normalized level of signal. […] The mixture was then transferred to 96 well microtiter dishes containing immobilized FcεRI-IgG. After a 1-hour incubation period, the plates were washed 10 times, incubated with anti M13-HRP conjugated antibody and developed with OPD as described above.
In addition, stepwise N-terminal and C-terminal truncations of the peptide sequence were constructed. All constructs were made by designing oligonucleotides corresponding to the desired substitution or truncation, with an additional 18 bp of DNA overlapping the peptide or g3 phage DNA sequence. The phage clones were propagated overnight following infection in XL-1 Blue *E. coli*. Purified phage preparations were titered and assayed for binding to immobilized receptor. FcεRI-IgG competition assays were performed as described above.

[2] = target: T1, FcεRI-IgG; test: competitive phage ELISA; reference of the N-terminal truncation series
Protocol: as §1
(§2) In addition, stepwise N-terminal and C-terminal truncations of the peptide sequence were constructed. […]

[3] = target: T1, FcεRI-IgG; test: competitive phage ELISA; reference of the C-terminal truncation series
Protocol: as §1, §2

[4] = target: T2, extracellular domain of the alpha subunit of the human FcεRI (aa 1-176) (human, UniProt P12319 26-201); test: competitive phage ELISA on FcεRI (FIG. 2)
T2 construct: range 1-176; also called soluble FcεRI; baculovirus-derived FcεRI
T2 sequence (looked up): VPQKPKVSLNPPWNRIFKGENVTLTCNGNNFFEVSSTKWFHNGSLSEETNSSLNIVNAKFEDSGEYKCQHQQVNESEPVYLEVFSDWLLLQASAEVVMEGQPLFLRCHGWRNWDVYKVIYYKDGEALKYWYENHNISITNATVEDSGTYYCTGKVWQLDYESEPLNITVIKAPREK
Protocol: Phage ELISA assays were carried out as described (Lowman, 1998, supra), using Nunc Maxisorp™ plates coated with a 2 μg/mL solution of baculovirus-derived FcεRI. Peptide-phage were pre-incubated for 5–10 min with serial dilutions of receptor, then added to the receptor-coated plate. After incubation for 1 h at room temperature, the plates were washed and an anti-phage HRP-conjugated antibody (Pharmacia) was added. After further incubation for 20 min, plates were again washed and developed using the substrate OPD (Sigma). Optical density at 492 nm was read and plotted as a function of FcεRI concentration to determine an $IC50$ of inhibition by each peptide-phage variant.
These libraries were sorted for FcεRI binding as described above. […] The "linker region" (underlined) of the peptide was randomized in this library.

[5] = target: T2, extracellular domain of the alpha …; test: competitive phage ELISA on FcεRI (FIG. 1)

B1: g3c.42 peptide-phage (peptide)
peptide: NLPRCTEGPWGWVCMAAD
modifications: not fully specified (bridges); cysteine pairing not given here
notes: Monovalent g3p phage display; not shown: fused to M13 gene-3 protein (g3p) on phage
- IC50 [1]: 5.6 nM and 3.1 nM
- Relative (IC50) (fold weaker) [2]: 1 fold
- Relative (IC50) (fold weaker) [3]: 1 fold

Binder: IVCPRLCYELDYELCPDVCYV (not shown: M13 g3p display) [phage clone IVCPRLCYELDYELCPDVCYV from the IGE120-phage library (NBO895-619D)]
- fold improved affinity over IGE120 [4]: ~2 fold

Binder: VQCPHFCYVGGKALCPDVCYV (not shown: M13 g3p display) [IGE122-phage VQCPHFCYVGGKALCPDVCYV]
- binding result [5]: binds
